Results taken from patent US20250282868A1.

Key:
[1] = biological target: mouse TREM2 (mouse) (UniProt Q99NH8); experiment: MFI on CT26 cells over-expressing mouse TREM2 and DAP12; control in the row of EOS006172
[2] = biological target: mouse TREM2 (mouse) (UniProt Q99NH8); experiment: MFI on CT26 cells over-expressing mouse TREM2 and DAP12; control in the row of EOS006168
[3] = biological target: mouse TREM2 (mouse) (UniProt Q99NH8); experiment: MFI on CT26 cells over-expressing mouse TREM2 and DAP12; control in the row of PN-37012
[4] = biological target: mouse TREM2 (mouse) (UniProt Q99NH8); experiment: MFI on CT26 cells over-expressing mouse TREM2 and DAP12; control in the row of EOS006170
[5] = biological target: mouse TREM2 (mouse) (UniProt Q99NH8); experiment: MFI on CT26 cells over-expressing mouse TREM2 and DAP12; control in the row of EOS006164
[6] = biological target: mouse TREM2 (mouse) (UniProt Q99NH8); experiment: MFI on CT26 cells over-expressing mouse TREM2 and DAP12; control in the row of EOS006175
[7] = biological target: mouse TREM2 (mouse) (UniProt Q99NH8); experiment: MFI on CT26 cells over-expressing mouse TREM2 and DAP12; control in the row of EOS006179
[8] = biological target: mouse TREM2 (mouse) (UniProt Q99NH8); experiment: MFI on CT26 cells over-expressing mouse TREM2 and DAP12; control in the row of EOS006176
[9] = biological target: mouse TREM2 (mouse) (UniProt Q99NH8); experiment: MFI on CT26 cells over-expressing mouse TREM2 and DAP12; control in the row of EOS006178
[10] = biological target: mouse TREM2 (mouse) (UniProt Q99NH8); experiment: MFI on CT26 cells over-expressing mouse TREM2 and DAP12; control in the row of EOS006181
[11] = biological target: mouse TREM2 (mouse) (UniProt Q99NH8); experiment: MFI on CT26 cells over-expressing mouse TREM2 and DAP12; control in the row of EOS006174
[12] = biological target: mouse TREM2 (mouse) (UniProt Q99NH8); experiment: MFI on CT26 cells over-expressing mouse TREM2 and DAP12; control in the row of EOS006177
[13] = biological target: mouse TREM2 (mouse) (UniProt Q99NH8); experiment: MFI on CT26 cells over-expressing mouse TREM2 and DAP12; control in the row of Ab52
[14] = biological target: mouse TREM2 (mouse) (UniProt Q99NH8); experiment: MFI on CT26 cells over-expressing mouse TREM2 and DAP12; control in the row of EOS006166
[15] = biological target: mouse TREM2 (mouse) (UniProt Q99NH8); experiment: MFI on CT26 cells over-expressing mouse TREM2 and DAP12; control in the row of EOS006163
[16] = biological target: mouse TREM2 (mouse) (UniProt Q99NH8); experiment: MFI on CT26 cells over-expressing mouse TREM2 and DAP12; control in the row of EOS006173
[17] = biological target: mouse TREM2 (mouse) (UniProt Q99NH8); experiment: MFI on CT26 cells over-expressing mouse TREM2 and DAP12; control in the row of EOS006162
[18] = biological target: mouse TREM2 (mouse) (UniProt Q99NH8); experiment: MFI on CT26 cells over-expressing mouse TREM2 and DAP12; control in the row of EOS006165
[19] = biological target: mouse TREM2 (mouse) (UniProt Q99NH8); experiment: MFI on CT26 cells over-expressing mouse TREM2 and DAP12; control in the row of EOS006167
[20] = biological target: mouse TREM2 (mouse) (UniProt Q99NH8); experiment: MFI on CT26 cells over-expressing mouse TREM2 and DAP12; control in the row of EOS006169
[21] = biological target: mouse TREM2 (mouse) (UniProt Q99NH8); experiment: MFI on CT26 cells over-expressing mouse TREM2 and DAP12; control in the row of EOS006180

Chain of mouse TREM2 (mouse) (Q99NH8 19-227): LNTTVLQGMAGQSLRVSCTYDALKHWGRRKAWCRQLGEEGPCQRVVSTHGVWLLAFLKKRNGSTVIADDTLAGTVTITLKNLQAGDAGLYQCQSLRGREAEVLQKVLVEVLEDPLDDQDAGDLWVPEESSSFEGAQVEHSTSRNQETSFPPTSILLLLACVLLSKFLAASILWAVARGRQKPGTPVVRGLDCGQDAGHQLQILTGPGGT

Isotype control on CT26-TREM2 MFI [1]: 2170 MFI
Isotype control on CT26-TREM2 MFI [2]: 2170 MFI
Isotype control on CT26-TREM2 MFI [3]: 302 MFI
Isotype control on CT26-TREM2 MFI [4]: 679 MFI
Isotype control on CT26-TREM2 MFI [5]: 345 MFI
Isotype control on CT26-TREM2 MFI [6]: 679 MFI
Isotype control on CT26-TREM2 MFI [7]: 679 MFI
Isotype control on CT26-TREM2 MFI [8]: 345 MFI
Isotype control on CT26-TREM2 MFI [9]: 345 MFI
Isotype control on CT26-TREM2 MFI [10]: 345 MFI
Isotype control on CT26-TREM2 MFI [11]: 345 MFI
Isotype control on CT26-TREM2 MFI [12]: 345 MFI
Isotype control on CT26-TREM2 MFI [13]: 402 MFI
Isotype control on CT26-TREM2 MFI [14]: 295 MFI
Isotype control on CT26-TREM2 MFI [15]: 402 MFI
Isotype control on CT26-TREM2 MFI [16]: 679 MFI
Isotype control on CT26-TREM2 MFI [17]: 2170 MFI
Isotype control on CT26-TREM2 MFI [18]: 2170 MFI
Isotype control on CT26-TREM2 MFI [19]: 2170 MFI
Isotype control on CT26-TREM2 MFI [20]: 679 MFI
Isotype control on CT26-TREM2 MFI [21]: 2170 MFI
Substance: Isotype control (antibody)
